Blank lines part the entries; values can stand above or below the binder they belong to.
Key:
[1] = target: human DLL3 protein expressed on CHO-K1 recombinant cells (human DLL3 extracellular segment fused to EpCAM transmembrane and intracellular regions) (human) (UniProt Q9NYJ7); test: FACS, CHO-K1 hDLL3 cells, 0.16 nM antibody
[2] = target: human DLL3 protein expressed on CHO-K1 recombinant cells (human DLL3 extracellular segment fused to EpCAM transmembrane and intracellular regions) (human) (UniProt Q9NYJ7); test: FACS, CHO-K1 hDLL3 cells, 0.00128 nM antibody
[3] = target: human DLL3 protein expressed on CHO-K1 recombinant cells (human DLL3 extracellular segment fused to EpCAM transmembrane and intracellular regions) (human) (UniProt Q9NYJ7); test: FACS, CHO-K1 hDLL3 cells, 4 nM antibody
[4] = target: human delta-like ligand 3 (DLL3) on SHP77 cells (human) (UniProt Q9NYJ7); test: FACS on SHP77 cells
[5] = target: human DLL3 protein expressed on CHO-K1 recombinant cells (human DLL3 extracellular segment fused to EpCAM transmembrane and intracellular regions) (human) (UniProt Q9NYJ7); test: FACS, CHO-K1 hDLL3 cells, 100 nM antibody
[6] = target: human DLL3 protein expressed on CHO-K1 recombinant cells (human DLL3 extracellular segment fused to EpCAM transmembrane and intracellular regions) (human) (UniProt Q9NYJ7); test: FACS, CHO-K1 hDLL3 cells, 20 nM antibody
[7] = target: human DLL3 protein expressed on CHO-K1 recombinant cells (human DLL3 extracellular segment fused to EpCAM transmembrane and intracellular regions) (human) (UniProt Q9NYJ7); test: FACS, CHO-K1 hDLL3 cells, 0.8 nM antibody
[8] = target: human DLL3 protein expressed on CHO-K1 recombinant cells (human DLL3 extracellular segment fused to EpCAM transmembrane and intracellular regions) (human) (UniProt Q9NYJ7); test: FACS, CHO-K1 hDLL3 cells, 0.032 nM antibody
[9] = target: human DLL3 protein expressed on CHO-K1 recombinant cells (human DLL3 extracellular segment fused to EpCAM transmembrane and intracellular regions) (human) (UniProt Q9NYJ7); test: FACS, CHO-K1 hDLL3 cells, 0.0064 nM antibody
[10] = target: DLL3 endogenously expressed on NCI-H82 cells (UniProt Q9NYJ7); test: FACS on NCI-H82 cells; antibody 100 nM
[11] = target: monkey DLL3 on CHO-K1-cyno DLL3 cells (cynomolgus monkey); test: FACS, CHO-K1-cyno DLL3 cells, 100 nM antibody
[12] = target: DLL3 endogenously expressed on NCI-H82 cells (UniProt Q9NYJ7); test: FACS on NCI-H82 cells; antibody 0.0064 nM
[13] = target: human DLL1 protein (Acro, Cat. No. DL1-H52H8) (human) (UniProt O00548); test: ELISA, coated hDLL1; maximum over 0.1, 1, 10, 100 nM antibody
[14] = target: DLL3 endogenously expressed on NCI-H82 cells (UniProt Q9NYJ7); test: FACS on NCI-H82 cells; antibody 0.8 nM
[15] = target: DLL3 endogenously expressed on NCI-H82 cells (UniProt Q9NYJ7); test: FACS on NCI-H82 cells; antibody 4 nM
[16] = target: monkey DLL3 on CHO-K1-cyno DLL3 cells (cynomolgus monkey); test: FACS, CHO-K1-cyno DLL3 cells, 0.16 nM antibody
[17] = target: DLL3 endogenously expressed on NCI-H82 cells (UniProt Q9NYJ7); test: FACS on NCI-H82 cells; antibody 20 nM
[18] = target: monkey DLL3 on CHO-K1-cyno DLL3 cells (cynomolgus monkey); test: FACS, CHO-K1-cyno DLL3 cells, 0.8 nM antibody
[19] = target: monkey DLL3 on CHO-K1-cyno DLL3 cells (cynomolgus monkey); test: FACS, CHO-K1-cyno DLL3 cells, 0.00128 nM antibody
[20] = target: monkey DLL3 on CHO-K1-cyno DLL3 cells (cynomolgus monkey); test: FACS, CHO-K1-cyno DLL3 cells, 20 nM antibody
[21] = target: human DLL4 protein (Acro, Cat. No. DL4-H5227) (human) (UniProt Q9NR61); test: ELISA, coated hDLL4; maximum over 0.1, 1, 10, 100 nM antibody
[22] = target: DLL3 endogenously expressed on NCI-H82 cells (UniProt Q9NYJ7); test: FACS on NCI-H82 cells; antibody 0.032 nM
[23] = target: monkey DLL3 on CHO-K1-cyno DLL3 cells (cynomolgus monkey); test: FACS, CHO-K1-cyno DLL3 cells, 0.0064 nM antibody
[24] = target: DLL3 endogenously expressed on NCI-H82 cells (UniProt Q9NYJ7); test: FACS on NCI-H82 cells; antibody 0.16 nM
[25] = target: monkey DLL3 on CHO-K1-cyno DLL3 cells (cynomolgus monkey); test: FACS, CHO-K1-cyno DLL3 cells, 0.032 nM antibody
[26] = target: DLL3 endogenously expressed on NCI-H82 cells (UniProt Q9NYJ7); test: FACS on NCI-H82 cells; antibody 0.00128 nM
[27] = target: monkey DLL3 on CHO-K1-cyno DLL3 cells (cynomolgus monkey); test: FACS, CHO-K1-cyno DLL3 cells, 4 nM antibody
[28] = target: human DLL3 protein (extracellular segment, His tag) (human) (UniProt Q9NYJ7); test: SPR (Biacore 8K), antibody captured on Protein A chip, DLL3 antigen in solution, 1:1 Langmuir fit
human DLL3 protein (extracellular segment, His tag) (human), sequence (Q9NYJ7 27-492): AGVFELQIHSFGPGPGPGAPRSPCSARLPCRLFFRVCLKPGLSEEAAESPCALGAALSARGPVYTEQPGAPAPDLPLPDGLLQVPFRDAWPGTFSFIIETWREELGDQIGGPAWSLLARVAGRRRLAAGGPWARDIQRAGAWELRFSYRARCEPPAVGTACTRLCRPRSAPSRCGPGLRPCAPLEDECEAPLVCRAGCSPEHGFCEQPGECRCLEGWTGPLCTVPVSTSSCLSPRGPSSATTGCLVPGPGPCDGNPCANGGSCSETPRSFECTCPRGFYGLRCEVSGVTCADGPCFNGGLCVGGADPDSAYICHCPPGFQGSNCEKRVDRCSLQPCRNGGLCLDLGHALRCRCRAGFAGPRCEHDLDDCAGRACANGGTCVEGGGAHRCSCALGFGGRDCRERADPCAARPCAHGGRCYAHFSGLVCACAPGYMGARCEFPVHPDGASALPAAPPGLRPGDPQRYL

human delta-like ligand 3 (DLL3) on SHP77 cells (human), sequence (Q9NYJ7 27-618, stated change not applied): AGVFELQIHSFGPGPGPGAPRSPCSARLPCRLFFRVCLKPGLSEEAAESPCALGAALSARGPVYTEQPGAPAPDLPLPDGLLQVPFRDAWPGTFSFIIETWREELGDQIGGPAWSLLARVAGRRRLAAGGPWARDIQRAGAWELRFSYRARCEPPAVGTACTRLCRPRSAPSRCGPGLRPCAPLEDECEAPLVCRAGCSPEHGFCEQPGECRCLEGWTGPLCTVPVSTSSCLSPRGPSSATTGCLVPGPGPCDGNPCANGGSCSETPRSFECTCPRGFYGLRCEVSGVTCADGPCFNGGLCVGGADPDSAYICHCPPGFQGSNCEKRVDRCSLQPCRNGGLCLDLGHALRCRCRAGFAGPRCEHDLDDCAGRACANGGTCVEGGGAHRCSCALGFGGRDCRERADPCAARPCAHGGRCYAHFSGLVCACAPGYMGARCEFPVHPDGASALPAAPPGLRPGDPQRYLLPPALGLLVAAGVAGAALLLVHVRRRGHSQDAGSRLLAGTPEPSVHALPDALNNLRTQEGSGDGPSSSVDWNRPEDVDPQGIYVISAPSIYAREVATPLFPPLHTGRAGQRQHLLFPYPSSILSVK
DLL3 endogenously expressed on NCI-H82 cells, sequence (Q9NYJ7 27-618): as the sequence (Q9NYJ7 27-618, stated change not applied) above
monkey DLL3 on CHO-K1-cyno DLL3 cells (cynomolgus monkey), sequence (chain, as listed by the source limits assumed): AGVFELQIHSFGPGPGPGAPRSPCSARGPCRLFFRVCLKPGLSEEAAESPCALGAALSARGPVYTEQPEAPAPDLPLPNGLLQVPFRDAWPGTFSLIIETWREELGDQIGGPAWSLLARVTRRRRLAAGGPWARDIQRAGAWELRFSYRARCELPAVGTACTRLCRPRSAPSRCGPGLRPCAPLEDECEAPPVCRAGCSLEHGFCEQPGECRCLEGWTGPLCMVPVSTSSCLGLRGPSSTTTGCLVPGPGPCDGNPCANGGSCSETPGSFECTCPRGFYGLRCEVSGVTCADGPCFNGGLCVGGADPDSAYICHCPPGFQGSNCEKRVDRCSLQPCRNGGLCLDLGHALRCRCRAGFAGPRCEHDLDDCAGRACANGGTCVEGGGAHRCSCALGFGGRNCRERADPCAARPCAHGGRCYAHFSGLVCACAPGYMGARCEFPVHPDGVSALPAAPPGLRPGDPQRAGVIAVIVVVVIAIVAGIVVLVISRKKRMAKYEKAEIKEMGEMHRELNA
human DLL3 protein expressed on CHO-K1 recombinant cells (human DLL3 extracellular segment fused to EpCAM transmembrane and intracellular regions) (human), sequence (Q9NYJ7 other isoform, or with tags, fused parts or gaps limits assumed): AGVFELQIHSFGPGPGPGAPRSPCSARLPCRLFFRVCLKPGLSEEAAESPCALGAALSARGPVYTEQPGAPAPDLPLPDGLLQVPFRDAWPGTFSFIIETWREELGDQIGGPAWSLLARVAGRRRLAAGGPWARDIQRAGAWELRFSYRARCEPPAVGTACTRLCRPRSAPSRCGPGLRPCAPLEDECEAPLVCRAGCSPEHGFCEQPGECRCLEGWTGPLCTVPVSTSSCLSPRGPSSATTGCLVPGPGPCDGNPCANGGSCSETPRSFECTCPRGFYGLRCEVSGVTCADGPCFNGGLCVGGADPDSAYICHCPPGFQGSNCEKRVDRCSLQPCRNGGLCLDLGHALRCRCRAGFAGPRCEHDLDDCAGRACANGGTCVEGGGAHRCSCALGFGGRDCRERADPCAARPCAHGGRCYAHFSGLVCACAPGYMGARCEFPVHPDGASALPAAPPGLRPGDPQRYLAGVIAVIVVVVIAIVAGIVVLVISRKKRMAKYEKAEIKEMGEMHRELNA
human DLL4 protein (Acro, Cat. No. DL4-H5227) (human), sequence (Q9NR61 27-524 limits assumed): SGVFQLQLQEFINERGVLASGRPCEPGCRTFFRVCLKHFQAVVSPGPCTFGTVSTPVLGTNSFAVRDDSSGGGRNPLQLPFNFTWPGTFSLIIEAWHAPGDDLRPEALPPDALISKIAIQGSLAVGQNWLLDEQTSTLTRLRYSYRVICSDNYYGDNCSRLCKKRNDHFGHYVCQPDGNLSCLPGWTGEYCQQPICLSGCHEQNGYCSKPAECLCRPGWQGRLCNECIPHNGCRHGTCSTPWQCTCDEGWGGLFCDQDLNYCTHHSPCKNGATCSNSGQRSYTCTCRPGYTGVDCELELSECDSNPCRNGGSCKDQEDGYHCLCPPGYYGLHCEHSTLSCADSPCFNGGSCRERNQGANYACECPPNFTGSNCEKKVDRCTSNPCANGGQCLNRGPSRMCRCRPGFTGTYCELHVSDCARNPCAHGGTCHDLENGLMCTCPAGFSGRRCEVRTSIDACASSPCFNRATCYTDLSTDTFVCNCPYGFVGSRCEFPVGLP
human DLL1 protein (Acro, Cat. No. DL1-H52H8) (human), sequence (O00548 18-540 limits assumed): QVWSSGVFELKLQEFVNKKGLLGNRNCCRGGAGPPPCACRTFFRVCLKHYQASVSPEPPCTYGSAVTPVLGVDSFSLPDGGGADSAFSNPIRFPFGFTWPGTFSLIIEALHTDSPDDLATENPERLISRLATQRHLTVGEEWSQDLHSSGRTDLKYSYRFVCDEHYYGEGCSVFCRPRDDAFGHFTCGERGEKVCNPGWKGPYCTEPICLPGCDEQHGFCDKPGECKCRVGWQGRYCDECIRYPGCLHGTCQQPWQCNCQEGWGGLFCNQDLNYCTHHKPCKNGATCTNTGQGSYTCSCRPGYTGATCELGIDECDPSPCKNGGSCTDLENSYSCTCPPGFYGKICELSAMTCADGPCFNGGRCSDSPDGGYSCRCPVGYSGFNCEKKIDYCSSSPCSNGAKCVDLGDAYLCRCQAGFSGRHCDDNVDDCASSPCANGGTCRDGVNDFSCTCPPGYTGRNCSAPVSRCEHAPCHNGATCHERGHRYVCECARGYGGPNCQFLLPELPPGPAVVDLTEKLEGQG

MFI [1]: 5730 MFI
MFI [2]: 204 MFI
MFI [3]: 12800 MFI
MFI at 0.00128 nM [4]: 105 MFI
MFI at 0.0064 nM [4]: 128 MFI
MFI at 0.032 nM [4]: 196 MFI
MFI at 0.16 nM [4]: 396 MFI
MFI at 0.8 nM [4]: 673 MFI
MFI at 4 nM [4]: 769 MFI
MFI at 20 nM [4]: 852 MFI
MFI at 100 nM [4]: 954 MFI
MFI [5]: 13400 MFI
MFI [6]: 13300 MFI
MFI [7]: 11800 MFI
MFI [8]: 1500 MFI
MFI [9]: 458 MFI
B1: Hab009VL3aVH1-hFc (Fc fusion, part only; not given: Linker and human IgG1 Fc, not shown: a dimerising Fc or GST)
chain, part: DIVMTQSPLSLPVTPGEPASISCRASQTISDYLHWYLQKSHQSPQLLIKYASQSISGVPDRFSGSGSGTDFTLKISRVEAEDVGVYYCQQGHSFPLTFGQGTKLEIKEVQLVQSGAEVKKPGASVKVSCKASGYTFTSYWMHWVRQAPGQRLEWMGTIYPGNSDTRYNQKFKDRVTITADTSASTAYMELSSLRSEDTAVYYCTRSYDYGDLDYWGQGTTVTVSS

MFI [10]: 617
MFI [11]: 18600 MFI
MFI [1]: 866 MFI
MFI [12]: 106
Emax of OD450 nm binding value [13]: 0.06 OD450 nm
MFI [2]: 109 MFI
MFI [14]: 312
MFI [3]: 7440 MFI
MFI at 0.00128 nM [4]: 119 MFI
MFI at 0.0064 nM [4]: 121 MFI
MFI at 0.032 nM [4]: 126 MFI
MFI at 0.16 nM [4]: 144 MFI
MFI at 0.8 nM [4]: 187 MFI
MFI at 4 nM [4]: 297 MFI
MFI at 20 nM [4]: 532 MFI
MFI at 100 nM [4]: 758 MFI
MFI [5]: 7690 MFI
MFI [6]: 7660 MFI
MFI [15]: 440
MFI [16]: 1540 MFI
MFI [7]: 3700 MFI
MFI [8]: 316 MFI
MFI [17]: 503
MFI [18]: 7010 MFI
MFI [19]: 129 MFI
MFI [20]: 19500 MFI
Emax of OD450 nm binding value [21]: 0.07 OD450 nm
MFI [9]: 148 MFI
MFI [22]: 134
MFI [23]: 231 MFI
MFI [24]: 194
MFI [25]: 511 MFI
MFI [26]: 93
MFI [27]: 17600 MFI
Kd [28]: 535 pM
koff [28]: 0.000324 s⁻¹
kon [28]: 606000 M⁻¹ s⁻¹
B2: Hab008L1H2a-hFc (scFv, part only; not given: VL-VH linker and human IgG1 Fc, V domains shown, not shown: another chain or arm of the molecule; a dimerising Fc or GST; small tags and cut ends)
VL: DIQMTQSPSSLSASVGDRVTITCKASQNVGTAVAWYQQKPGKSPKLLIFSASIRYTGVPSRFSGSGSGTDFTLTISSLQPEDFATYYCQQYSSSPYTFGGGTKVEIK
VH: EVQLVQSGAEVKKPGASVKVSCKASGYTFTDYYMNWVRQAPGQRLEWMGIINPYNSGTSYNQKFRGRVTLTVDKSASTAYMELSSLRSEDTAVYYCSRYDYDYDVEGAMDYWGQGTTVTVSS
